From publication PMC4889915 (Nucleic Acids Research, 2016)

T1: GST-HDA6 (Arabidopsis thaliana, UniProt Q9FML2 1-471)
T1 sequence (looked up): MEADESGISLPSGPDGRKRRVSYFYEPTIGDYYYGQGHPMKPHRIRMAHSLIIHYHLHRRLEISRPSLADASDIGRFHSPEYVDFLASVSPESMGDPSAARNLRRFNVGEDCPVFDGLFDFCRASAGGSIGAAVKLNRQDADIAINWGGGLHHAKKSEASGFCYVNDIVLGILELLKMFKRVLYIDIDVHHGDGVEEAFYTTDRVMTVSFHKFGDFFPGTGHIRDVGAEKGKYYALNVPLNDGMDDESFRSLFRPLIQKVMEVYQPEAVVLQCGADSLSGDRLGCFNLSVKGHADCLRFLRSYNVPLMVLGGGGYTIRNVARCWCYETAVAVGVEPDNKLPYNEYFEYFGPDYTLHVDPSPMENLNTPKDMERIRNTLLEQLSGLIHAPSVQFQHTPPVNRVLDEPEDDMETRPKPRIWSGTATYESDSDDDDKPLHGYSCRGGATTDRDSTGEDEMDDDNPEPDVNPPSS

T2: AtTRB3-6xHis (Arabidopsis thaliana, UniProt Q9M2X3 1-295)
T2 sequence (looked up): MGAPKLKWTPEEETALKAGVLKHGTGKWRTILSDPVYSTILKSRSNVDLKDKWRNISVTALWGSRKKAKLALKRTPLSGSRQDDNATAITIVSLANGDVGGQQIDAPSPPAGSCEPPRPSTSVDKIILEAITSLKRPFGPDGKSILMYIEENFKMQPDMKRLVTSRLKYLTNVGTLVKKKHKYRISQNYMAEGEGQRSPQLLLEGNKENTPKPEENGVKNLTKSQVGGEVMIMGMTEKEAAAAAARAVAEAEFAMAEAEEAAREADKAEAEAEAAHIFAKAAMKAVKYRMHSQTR

B1: AtTRB2-6xHis (natural protein, Arabidopsis thaliana, UniProt Q9FJW5 1-299, looked up)
chain: MGAPKQKWTPEEEAALKAGVLKHGTGKWRTILSDTEFSLILKSRSNVDLKDKWRNISVTALWGSRKKAKLALKRTPPGTKQDDNNTALTIVALTNDDERAKPTSPGGSGGGSPRTCASKRSITSLDKIIFEAITNLRELRGSDRTSIFLYIEENFKTPPNMKRHVAVRLKHLSSNGTLVKIKHKYRFSSNFIPAGARQKAPQLFLEGNNKKDPTKPEENGANSLTKFRVDGELYMIKGMTAQEAAEAAARAVAEAEFAITEAEQAAKEAERAEAEAEAAQIFAKAAMKALKFRIRNHPW
B2: GST-HDT4 (full-length) (enzyme, Arabidopsis thaliana, UniProt Q9M4T3 1-203, looked up)
chain: MEFWGIEIKPGKPFKVIQKDGFMVHASQVTLGDVEKVKKDETFAVYVKIGDDENGFMIGNLSQKFPQFSIDLYLGHEFEISHNSTSSVYLIGYRTFDAFDELDEEIDSDSELDEYMEQQIAALPQNEINPEEDDESDSDEMGLDEDDDSSDEEDVEAEAPLKVAPPSKKMPNGAFEIAKGGKKNKSSGGKKRCPFPCGPSCKK

Assays:
Test in all cases: pull-down
GST-HDA6 = biological target: T1, GST-HDA6
AtTRB3-6xHis = biological target: T2, AtTRB3-6xHis
AtTRB2-6xHis = biological target: B1

B1
binding result (GST-HDA6): binds

B2
binding result (AtTRB3-6xHis): binds | binding result (AtTRB2-6xHis): binds
